Patent publication US20190315821A1, “COMPOSITIONS COMPRISING HEPCIDIN AND METHODS OF USE THEREOF” (La Jolla Pharmaceutical Company, priority 2018, published 2019)
“And” between values parts separate entries of the source, which are not always exact repeats. Equal entries are not always repeated.

Legend:
[1] = Effect of salt form on aggregate formation; type: physicochemical; settings: for aggregation when maleic acid is present: pH 4.2, 1 mg/mL maleic acid, continued aggregation then slowed; for native pH of solution: when preparing solutions of hepcidin, before pH adjustment
Method: The trifluoroacetate, chloride and acetate salts of hepcidin were prepared and all three salt forms were formulated in 0.9% saline at pH 4.2. The hepcidin concentration was 20 mg/mL with a maleic acid concentration of either 0 mg/mL or 1 mg/mL. Samples were filtered using a 0.2 μm syringe filter and aliquoted into glass screw cap amber vials. The samples were assessed for stability at 5° C. and 25° C. Over the course of 47 days the samples were evaluated by visual inspection, pH and SEC.

[2] = Thiol content assay of hepcidin-25 batches; type: physicochemical; settings: for Average mole thiol/[mole hepcidin]: batches of hepcidin-25 before and after purification, lower quantifiable limit 0.01; for thiol content of sample of FIG. 2: sample used in pH 2.5 / pH 5.6 stability study
From the text: In some embodiments, the composition comprises purified hepcidin and is substantially free of thiol (e.g., unreacted, free sulfhydryl-containing cysteines). Thiols can react with the disulfide bridges of hepcidin resulting in disulfide scrambling and potential polymerization of multiple hepcidin molecules to form aggregated hepcidin. Such thiols can come from multiple sources, some of which include thiols left over from synthesis of the hepcidin, incomplete folding of hepcidin and breakage of disulfide bridges within folded hepcidin, improperly folded hepcidin and/or aggregated hepcidin. Thiols may be measured by several methods, which may include a thiol quantification assay kit such as that from Molecular Probes: Thiol and Sulfide Quantification Kit (T-6060). Such a kit uses cysteine as a standard so that thiols are reported as cysteine equivalents. In some such embodiments the thiol content is less than 0.20 mole thiol/mole hepcidin. In some preferred embodiments, the thiol content is less than 0.1 mole thiol/mole hepcidin. In more preferred embodiments, the thiol content is less than 0.05 mole thiol/mole hepcidin. In further preferred embodiments, the thiol content is less than 0.015 mole thiol/mole hepcidin. In the most preferred embodiments, the thiol content is less than 0.01 mole thiol/mole hepcidin.
(§1) In view of the role played by intermolecular disulfide bond formation in aggregate formation, and the contribution of thiol groups to that end, multiple sources of hepcidin-25 were analyzed for thiol using a thiol content assay and evaluated for stability. Commercially available hepcidin was used in these Examples, which while “purified” to contain only hepcidin, contained thiols and aggregates, and thus may be referred to as “unpurified” to distinguish it from the compositions of the invention. […] For the purpose of this experiment the thiol impurity was removed as follows: Thiols were quenched using 1 molar equivalents of […] (NEM). The solution was then purified by tangential flow filtration (TFF) using Millipore Pellicon 2 10 kDa cassettes for aggregate removal and Pall T-Series 1 kDa for ultra-filtration-diafiltration. The starting material was diluted to less than or equal to 0.1 mg/mL prior to processing through the 10 kDa system. The diluent consisted of 15% Acetonitrile/0.05% Trifluoracetic acid (TFA).

[3] = Stability (aggregate formation by SEC) of unpurified and purified hepcidin in 0.9% saline at 40° C.; type: physicochemical; settings: for Stability: aggregate formation of the batch; for aggregation at low pH: pH 2.5, 0.9% saline, over 10 days; for aggregate by SEC: pH 5.6, 0.9% saline
Method: Aggregation can be measured by several different methods. In some embodiments, aggregation is measured by size exclusion high-performance liquid chromatography (SEC-HPLC). This method allows for the separation and quantification of hepcidin monomer from any aggregates including dimer, trimer and multimers. In other preferred embodiments, aggregation is measured by an isocratic method performed on an HPLC system comprised of a temperature controlled auto-sampler, a binary or quaternary pump, and an ultraviolet detector. For example, in some such embodiments, the mobile phase consists of 0.05% TFA in 50% acetonitrile and water and human hepcidin-25 (SEQ ID NO: 1) is dissolved in of 0.05% TFA to 1 mg/mL concentration. Five microliters of the solution are injected onto a Zenix-C SEC-80 column of 7.8×300 mm in dimension, 80 Å pore size and 3 μm particle size (Sepax Technologies, Newark, Del. 19711). A flow rate of 1 mL/min is used to elute the analyte from the column and deliver to the UV detector set at 214 nm. The entire run time is 13 min. Empower™ chromatography software or equivalent software is used to integrate each chromatography peak and calculate % peak area at each respective retention time.
as §1
The initial unpurified material and the resulting purified material were formulated in 0.9% saline at either pH 2.5 or pH 5.6 and assessed for stability at 40° C. Samples were taken over 10 days and evaluated by SEC.

[4] = test system: serum iron; settings: cited from earlier work
[5] = Mechanism of aggregate formation: stability studies and DTT reduction, SEC; type: physicochemical
From the text: Hepcidin contains 8 cysteines, forming 4 disulfide bridges, each with the potential to become unstable under certain conditions. […] Significant work was completed to address this degradation pathway.
Briefly, the effect of potential intermolecular disulfide bonding on aggregation was studied by adding a reducing agent to aggregated material to break all disulfide bonds. Hepcidin-25 with an aggregate content of 35% as measured by SEC was used for this study. An aliquot of this material was treated with 20 mM Dithiothreitol (DTT) and samples were evaluated by SEC.

[6] = Initial formulation stability (oxidation) by RP-HPLC; type: physicochemical
Method: […] Samples were analyzed by reversed-phase high-performance liquid chromatography (RP-HPLC). […] Samples were evaluated over 4.5 months and analyzed by RP-HPLC. Under all conditions, the rate of oxidation observed was slow.

[7] = Effect of pH 4.2 vs pH 4.8 on aggregate formation; type: physicochemical; settings: 9% starting aggregate, thiol removed, 0.9% sodium chloride, 5° C. and 25° C., about 50 days
Method: Hepcidin-25, with 9% starting aggregate and purified to remove thiol, was dissolved in 0.9% sodium chloride and adjusted to either pH 4.2 or pH 4.8. Samples were filtered using a 0.2 μm syringe filter and aliquoted into glass screw cap amber vials. Samples were assessed for stability at both 5° C. and 25° C. Samples were taken over about 50 days and evaluated by visual inspection, pH and SEC.

For hepcidin trifluoroacetate [TFA], which “aggregation when maleic acid is present” value ([1]; 20 mg/mL) is on record?
Its value is “initial increase in aggregation”.

Which “Average mole thiol/[mole hepcidin]” value [2] does the source give for “Vendor 2, Lot 2: commercially available hepcidin-25 batch, unpurified; label printed on two lines of Table 2” here?
Its value is 0.03 mole thiol/mole hepcidin and 0.02 mole thiol/mole hepcidin.

What about the Stability [3] of the same substance?
Its Stability is “Unstable, slower”.

For “Vendor 1, Lot 1: commercially available hepcidin-25 batch containing thiols and aggregates, referred to as unpurified”, which “Average mole thiol/[mole hepcidin]” value [2] is on record?
The value was 0.17 mole thiol/mole hepcidin.

And the “thiol content of sample of FIG. 2” value [2]?
The value was 1.7 mole thiol/mole hepcidin.

And the Stability [3]?
The Stability was “Unstable, rapid”.

And the “aggregation at low pH” value ([3]; 40° C.)?
Its value is “aggregates more slowly”.

What about the “aggregate by SEC” value ([3]; 40° C., after 24 hours) of the same substance?
The value was greater than 95%.

And the “aggregate by SEC” value ([3]; within time it took to test the material by SEC)?
Its value is 38%.

For “Vendor 1, Lot 1 purified: hepcidin-25 lot with thiols quenched with NEM and purified by tangential flow filtration”, which “Average mole thiol/[mole hepcidin]” value [2] is on record?
The value was less than 0.01 mole thiol/mole hepcidin.

What about the “thiol content of sample of FIG. 2” value [2] of the same substance?
Its value is “no detectable thiol”.

What about the Stability [3] of the same substance?
Its Stability is “Stable, very slow”.

What about the “aggregation at low pH” value ([3]; 40° C.) of the same substance?
Its value is “no aggregation”.

What about the “aggregate by SEC” value ([3]; after 10 days at 40° C.) of the same substance?
Its value is “about 38%”.

Which results are given for “Vendor 3, Lot 1: commercially available hepcidin-25 batch, unpurified”?
Average mole thiol/[mole hepcidin] [2]: 0.03 mole thiol/mole hepcidin; Stability [3]: Unstable, slower

Which “relative stability of salt forms” value ([1]; 20 mg/mL, 0.9% saline, pH 4.2, 0 or 1 mg/mL maleic acid, 5° C. and 25° C., 47 days) does the source give for hepcidin acetate [acetate salt form] here?
Its value is “most stable of the three salt forms”.

What about the “native pH of solution” value [1] of the same substance?
The value was “about 5”.

What does the source list for “Vendor 2, Lot 1: commercially available hepcidin-25 batch, unpurified”?
Average mole thiol/[mole hepcidin] [2]: 0.03 mole thiol/mole hepcidin; Stability [3]: Unstable, slower

Which “Average mole thiol/[mole hepcidin]” value [2] does the source give for “Vendor 1, Lot 2: commercially available hepcidin-25 batch, unpurified” here?
The value was greater than 0.2 mole thiol/mole hepcidin.

And the Stability [3]?
The Stability was “Unstable, rapid”.

For hepcidin chloride [HCl salt], which “aggregation when maleic acid is present” value ([1]; 20 mg/mL) is on record?
The value was “initial increase in aggregation”.

What about the “native pH of solution” value [1] of the same substance?
Its value is “about 2.5”.

Which results are given for hepcidin-25?
safety profile ([4]; nonclinical and clinical studies): favorable safety profile; duration of iron lowering effects ([4]; single subcutaneous injection): up to 1 week; main mode of degradation ([5]; accelerated (40° C.) and real time (5° C.) stability studies): aggregation; aggregation after reduction of disulfide bonds ([5]; material with 35% aggregate treated with 20 mM DTT): aggregation is reversed; rate of oxidation ([6]; 40 mg/mL in saline with or without methionine, 37° C. and 45° C., 4.5 months, all conditions): slow; effect of methionine excipient on oxidation ([6]; 40 mg/mL in saline, methionine ten-fold molar excess, 37° C. and 45° C.): reduced the amount of oxidation even further; primary degradation products observed ([6]; 50, 100 and 150 mg/mL, 5° C. over 4.5 months, RP-HPLC): mono or di-oxidation of the methionine at position 21; effect of pH on stability (aggregate formation) [7]: pH 4.2 being more stable than pH 4.8
